Assay results from the supplement of paper PMC12636428.

Test system: Saccharomyces cerevisiae
Experiment: transcriptional activation domain activity (GFP:mCherry ratio, weighted mean of sorted bins, harmonized to initial dataset scale) (arbitrary fluorescence ratio units); higher = stronger transcriptional activation
Settings: beta-estradiol 1 µM; induction time 4 h
Summary of the method: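 Barcoded protein tiles fused to an estradiol-inducible synthetic transcription factor were integrated at the yeast URA3 locus, in diploids carrying a GFP reporter. Cultures were diluted 1:5 into SC with 1 uM beta-estradiol, held 4 hours at 30 °C, sorted into 8 bins by GFP:mCherry ratio, and barcodes sequenced. Tiles under 50 reads were discarded. Activation activity is the read-weighted mean of bin median fluorescence, averaged across barcodes, then linearly mapped onto the initial dataset scale.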

Sequence | transcriptional activation domain activity
PKRRLGVAVTWTGLTLLLLLLLLLLPSLIILPSFAACFWYIYWGILRISFFFY | 26100
PKSRPKKAKEEAVATGALGATGVVPEKRKRGRPRKIQPPIDGVALVAPPVAAP | 51700
PKVLYILARYLGIIYISLFLGLRWSHFPIFVMKVNNLAYFVNALLYYTWIIIT | 33800
PKWHRYEDYEALFRVRNLCFPLILSGDIQLTLEYWWSIFSTSILRRPIFELNI | 69600
PLAGNSPGLPPEEVRNNSENASHNNETGPIETELAQTISNEFWTAYNLGWEEL | 56400
PLALDFPPLGHMVELVDVVMWLCGRAGELPMWPQKIFNFNWIELSMKYPHHFI | 50500
PLEKLMCLRTSLSLLSAAADKYMQENRLTVFHTSVASDDLILLLACALTQTHL | 50200
PLEYFDIKALSALIVFDEFPNYIIGLLLQSYPELVHGTFMPYIECMLFTMNPL | 61800
PLFRHQDSLLIVASNIGLVGMISILVYCTYAFSLQSVVKFYFIPYVLVNHWIV | 45200
PLFSILFSLSSFLSLPCPAHGCGPVGSWWSCLFLLFFFLSLLVMLSLLWCFGF | 41000
PLGTVGLAKLVFVKMFGGAKRITITLISAALLMMAVRFFSIAHPFLLADNRHY | 62400
PLHLLGDKAEVEIGGVWSAGMAYGSRELVERHLFSLYFMLPLVAVCIGFLYHN | 41200
PLIDLFGKDHLCLVKAAYHKIFGIVFESGTDLTDHVRRMLCTRSDFARTILPL | 82800
PLIPHVLPSLFPCPLFLPLFPPSPLLSPFPPSLCFPLPPFFLFPPLPLFPPFL | 25600
PLIQVPGYHSCGHGGLGGLCQASPTLLVISQSLFLRWWHTVHLLIEIYIWLWS | 72200
PLLACQVAYGFLVVFFSYSLIEEQVGCVIYYEHLVMLCWLVIIMPPNALLSTV | 58700
PLLFLLNRLPIHPPLLIVPVLLWFYCRLTIYSILFWLNNLMVQKLSLLIMSIF | 34500

Sequence | transcriptional activation domain activity
PLLLKGLQFTMAEEKTWSLLRQIMLLDNLPLIDPAPTRFMYLLLGAIPRLLNG | 49700
PLLNGSAIISRLTTGVIGDRYGVLTCEVPVAFITGCLIFSMCVLLLIILHLVC | 21700
PLLRVLQICSFKDLMFDVPHLHRFISNAELLRTLNHLDVSFSSYSVFLQLVGF | 70500
PLLTLNGLNCFFSLIYLINLLYSLKLFLQYFFFCLPFHIFILLMHSFLYYIFY | 62400
PLLVLSKRLHSIFMLRCFNDCFAVLGLWLAIFCYQRDQWHLGSFFYSTGLNVK | 71500
PLNMLHLGTWYLDGFQPFEHLRANKELWNLLVRGQTEILSLPRFGWTGWLLSF | 46900
PLPPSSPHWLVWIHAQDVVTMRMPSRIRPLLQELLEVIISVIQPSLHSAPQSG | 49500
PLPSPPSLPLPSPPSHSLLPLFLPFLPSLCSSLSILFPPLLLSHCPCFSFFLS | 63500
PLSLLIYFLEWIGPLNLWIRCLCKTSLIEFYFRLLVILLMPFLFVFWHIIGLG | 40100
PLVLPVTAFYFYMDSFLKKYLLLYVFITKYESGGMFWRVVFNRFLFLTLLGNI | 60500
PLVRWMLDYVINHGEIVHSHPSIRTLATSLIDHPYFLSFICSSFFIEPRGLSG | 34800
PLVVDFPQAVEYFPEMALKYMMCWLSRFDLLPGERLGCRVLAAFIHLTIHRVS | 57200
PLVVFPNFMAVVIIFGFFFMYFEDFNKEVFLHNKHHQIWVYLHFPLHLCQVAF | 78400
PLVVTALCVAPHEFFMKNWVSCFEVGLVKLKEKPYRMIVMNGMMRLIWTYLYR | 52800
PLWLAPNLVTLLGFFCILFNIFLLVILVPDLVGPGPSWLYYSFGLGVWMYSTM | 68600
PLYAYTIWSWLCQGVYFTLLTLLSFDQFQSLGEICFIFFELSFGNAMMVTLVS | 80300
PLYPTTRCIFFFYRFLLYVVHLNMSLLMHSFFFVLLQACRGWMSLFLLLSLLF | 47900
